Test results from PMC5945783, “Relationship Between Homodimeric Glucocorticoid Receptor and Transcriptional Regulation Assessed via an In Vitro Fluorescence Correlation Spectroscopy-Microwell System” (Scientific Reports, 2018).

Tests used:
[1] = target: the molecule itself; experiment: fluorescence correlation spectroscopy (FCS), particle brightness (counts per particle) analysis; FCS-microwell system: single transfected U2OS cell lysed in a 113 pL PDMS microwell; absence of Dex; lysis buffer with 0.1% SDS and Benzonase; bimolecular reaction model fitted in the 0-50 nM range; dimer to monomers
[2] = target: the molecule itself; experiment: fluorescence correlation spectroscopy (FCS), particle brightness (counts per particle) analysis; FCS-microwell system: single transfected U2OS cell, 500 nM Dex at 37 °C for 20 min, then lysed in a 113 pL PDMS microwell; lysis buffer with 0.1% SDS and Benzonase; bimolecular reaction model fitted in the 0-50 nM range; dimer to monomers

B1: EGFP-fused human glucocorticoid receptor α C421G mutant (natural protein, UniProt P04150 1-777, looked up)
chain: MDSKESLTPGREENPSSVLAQERGDVMDFYKTLRGGATVKVSASSPSLAVASQSDSKQRRLLVDFPKGSVSNAQQPDLSKAVSLSMGLYMGETETKVMGNDLGFPQQGQISLSSGETDLKLLEESIANLNRSTSVPENPKSSASTAVSAAPTEKEFPKTHSDVSSEQQHLKGQTGTNGGNVKLYTTDQSTFDILQDLEFSSGSPGKETNESPWRSDLLIDENCLLSPLAGEDDSFLLEGNSNEDCKPLILPDTKPKIKDNGDLVLSSPSNVTLPQVKTEKEDFIELCTPGVIKQEKLGTVYCQASFPGANIIGNKMSAISVHGVSTSGGQMYHYDMNTASLSQQQDQKPIFNVIPPIPVGSENWNRCQGSGDDNLTSLGTLNFPGRTVFSNGYSSPSMRPDVSSPPSSSSTATTGPPPKLGLVCSDEASGCHYGVLTCGSCKVFFKRAVEGQHNYLCAGRNDCIIDKIRRKNCPACRYRKCLQAGMNLEARKTKKKIKGIQQATTGVSQETSENPGNKTIVPATLPQLTPTLVSLLEVIEPEVLYAGYDSSVPDSTWRIMTTLNMLGGRQVIAAVKWAKAIPGFRNLHLDDQMTLLQYSWMFLMAFALGWRSYRQSSANLLCFAPDLIINEQRMTLPCMYDQCKHMLYVSSELHRLQVSYEEYLCMKTLLLLSSVPKDGLKSQELFDEIRMTYIKELGKAIVKREGNSSQNWQRFYQLTKLLDSMHEVVENLLNYCFQTFLDKTMSIEFPEMLAEIITNQIPKYSNGNIKKLLFHQK
notes: glucocorticoid receptor α, human, with C421G; also called EGFP-GR/C421G; GR/C421G; source: U2OS, transfected (ViaFect), in single-cell lysate
[1]
  Kd: 400 nM
[2]
  Kd: 220 nM

B2: EGFP-fused human glucocorticoid receptor α A458T mutant (natural protein, UniProt P04150 1-777, looked up)
chain: MDSKESLTPGREENPSSVLAQERGDVMDFYKTLRGGATVKVSASSPSLAVASQSDSKQRRLLVDFPKGSVSNAQQPDLSKAVSLSMGLYMGETETKVMGNDLGFPQQGQISLSSGETDLKLLEESIANLNRSTSVPENPKSSASTAVSAAPTEKEFPKTHSDVSSEQQHLKGQTGTNGGNVKLYTTDQSTFDILQDLEFSSGSPGKETNESPWRSDLLIDENCLLSPLAGEDDSFLLEGNSNEDCKPLILPDTKPKIKDNGDLVLSSPSNVTLPQVKTEKEDFIELCTPGVIKQEKLGTVYCQASFPGANIIGNKMSAISVHGVSTSGGQMYHYDMNTASLSQQQDQKPIFNVIPPIPVGSENWNRCQGSGDDNLTSLGTLNFPGRTVFSNGYSSPSMRPDVSSPPSSSSTATTGPPPKLCLVCSDEASGCHYGVLTCGSCKVFFKRAVEGQHNYLCTGRNDCIIDKIRRKNCPACRYRKCLQAGMNLEARKTKKKIKGIQQATTGVSQETSENPGNKTIVPATLPQLTPTLVSLLEVIEPEVLYAGYDSSVPDSTWRIMTTLNMLGGRQVIAAVKWAKAIPGFRNLHLDDQMTLLQYSWMFLMAFALGWRSYRQSSANLLCFAPDLIINEQRMTLPCMYDQCKHMLYVSSELHRLQVSYEEYLCMKTLLLLSSVPKDGLKSQELFDEIRMTYIKELGKAIVKREGNSSQNWQRFYQLTKLLDSMHEVVENLLNYCFQTFLDKTMSIEFPEMLAEIITNQIPKYSNGNIKKLLFHQK
notes: glucocorticoid receptor α, human, with A458T; also called EGFP-GR/A458T; GR/A458T; source: U2OS, transfected (ViaFect), in single-cell lysate
[1]
  Kd: 390 nM
[2]
  Kd: 370 nM
